In patent US10221225B2, “Peptides and combination of peptides and scaffolds thereof for use in immunotherapy against colorectal carcinoma (CRC) and other cancers” (immatics biotechnologies GmbH, priority 2015, dated 2019) one finds Peptide exchange data, which are given here for 65 substances.

The target in the assay is HLA-A*02:01 (Homo sapiens, UniProt P04439, D140Y/D185E/D98H/E176V/E277Q/G131W/G231S/I119V/I121R/I166T/I218V/L300P/L318F/N151K/N90K/P208A/P217A/Q86G/Q94H/R138H/R169H/T345S). As to the kind of experiment: MHC binding assay (UV-ligand exchange, beta2m ELISA, peptide exchange yield). To be noted: MHC class I binding score; binding to HLA-A*02:01 ranged by peptide exchange yield (UV-ligand exchange, β2m ELISA). The source says: Candidate peptides for T cell based therapies according to the present invention were further tested for their MHC binding capacity (affinity). The individual peptide-MHC complexes were produced by UV-ligand exchange, where a UV-sensitive peptide is cleaved upon UV-irradiation, and exchanged with the peptide of interest as analyzed. Only peptide candidates that can effectively bind and stabilize the peptide-receptive MHC molecules prevent dissociation of the MHC complexes. To determine the yield of the exchange reaction, an ELISA was performed based on the detection of the light chain (β2m) of stabilized MHC complexes. The assay was performed as generally described in Rodenko et al. (Rodenko et al., 2006).
96 well MAXISorp plates (NUNC) were coated over night with 2 ug/ml streptavidin in PBS at room temperature, washed 4× and blocked for 1 h at 37° C. in 2% BSA containing blocking buffer. Refolded HLA-A*02:01/MLA-001 monomers served as standards, covering the range of 15-500 ng/ml. Peptide-MHC monomers of the UV-exchange reaction were diluted 100 fold in blocking buffer. Samples were incubated for 1 h at 37° C., washed four times, incubated with 2 ug/ml HRP conjugated anti-β2m for 1 h at 37° C., washed again and detected with TMB solution that is stopped with […]. Absorption was measured at 450 nm. Candidate peptides that show a high exchange yield (preferably higher than 50%, most preferred higher than 75%) are generally preferred for a generation and production of antibodies or fragments thereof, and/or T cell receptors or fragments thereof, as they show sufficient avidity to the MHC molecules and prevent dissociation of the MHC complexes.
In general terms: ELISA stands for enzyme-linked immunosorbent assay.
Consider “103 (FLFGYPKRL; listed as Homo sapiens) [compound 103]”, for which the Peptide exchange entry is on record as “″++″ (≥20% = ++)”.

On to “110 (LLGELPRLLLL; listed as Homo sapiens) [compound 110]”, for which the Peptide exchange entry was “″+++″ (≥50 = +++)”.

With “138 (KQFEGTVEI; listed as Homo sapiens) [compound 138]”, the Peptide exchange result is on record as “″+++″ (≥50 = +++)”.

Consider “43 (TLDAAQPRV; listed as Homo sapiens) [compound 43]”, for which the Peptide exchange result was “″++″ (≥20% = ++)”.

On to “114 (TAVGHALVL; listed as Homo sapiens) [compound 114]”, for which the Peptide exchange result is on record as “″+″ (≥10% = +)”.

For “145 (LLLEVVKQV; listed as Homo sapiens) [compound 145]”, the Peptide exchange result is “″+++″ (≥50 = +++)”.

With “158 (GLLDPSVFHV; listed as Homo sapiens) [compound 158]”, the Peptide exchange result is on record as “″+++″ (≥50 = +++)”.

As for “24 (VLDGVLMEL; listed as Homo sapiens) [compound 24]”, the Peptide exchange result was “″+++″ (≥50 = +++)”.

As for “187 (GLHNVVYGI; listed as Homo sapiens) [compound 187]”, the Peptide exchange entry is “″+++″ (≥50 = +++)”.

As for “69 (GMLNEAEGKAIKL; listed as Homo sapiens) [compound 69]”, the Peptide exchange result is reported as “″++″ (≥20% = ++)”.

In the case of “100 (SLDDFLATA; listed as Homo sapiens) [compound 100]”, the Peptide exchange result is listed as “″+++″ (≥50 = +++)”.

For the substance “155 (RLLGEEVVRV; listed as Homo sapiens) [compound 155]”, the Peptide exchange result was “″+++″ (≥50 = +++)”.

In the case of “97 (ALWWGVVTV; listed as Homo sapiens) [compound 97]”, the Peptide exchange entry is “″++″ (≥20% = ++)”.

“166 (GLLEARGILGL; listed as Homo sapiens) [compound 166]”: the Peptide exchange entry is listed as “″+++″ (≥50 = +++)”.

On to “102 (KILVSLIEV; listed as Homo sapiens) [compound 102]”, for which the Peptide exchange entry is “″+++″ (≥50 = +++)”.

Take “71 (RLWTEIPTAI; listed as Homo sapiens) [compound 71]”: the Peptide exchange entry is reported as “″+++″ (≥50 = +++)”.

For the substance “46 (GLDDRYSLV; listed as Homo sapiens) [compound 46]”, the Peptide exchange entry is on record as “″+++″ (≥50 = +++)”.

On to “72 (YLLDYPNNLL; listed as Homo sapiens) [compound 72]”, for which the Peptide exchange result was “″+++″ (≥50 = +++)”.

For “156 (SLMMTIINL; listed as Homo sapiens) [compound 156]”, the Peptide exchange entry is on record as “″++++″ (≥75% = ++++)”.

In the case of “6 (FLAELPGSLSL; listed as Homo sapiens) [compound 6]”, the Peptide exchange entry is listed as “″+++″ (≥50 = +++)”.

On to “86 (KVFPGKISV; listed as Homo sapiens) [compound 86]”, for which the Peptide exchange result is on record as “″++″ (≥20% = ++)”.

Consider “161 (FLKNELDNV; listed as Homo sapiens) [compound 161]”, for which the Peptide exchange result was “″+++″ (≥50 = +++)”.

As for “70 (MISELEVRL; listed as Homo sapiens) [compound 70]”, the Peptide exchange result is on record as “″+++″ (≥50 = +++)”.

Regarding “94 (KSMDIVLTV; listed as Homo sapiens) [compound 94]”, the Peptide exchange result is on record as “″+++″ (≥50 = +++)”.

“169 (YLAHFIEGL; listed as Homo sapiens) [compound 169]”: the Peptide exchange result is “″+++″ (≥50 = +++)”.

On to “75 (EMIENIQSV; listed as Homo sapiens) [compound 75]”, for which the Peptide exchange entry is recorded as “″++″ (≥20% = ++)”.

As for “144 (LLNDRIWLA; listed as Homo sapiens) [compound 144]”, the Peptide exchange result is “″+++″ (≥50 = +++)”.

Take “177 (ALLQGAIESV; listed as Homo sapiens) [compound 177]”: the Peptide exchange entry is “″+++″ (≥50 = +++)”.

“60 (VLDEDEPRFL; listed as Homo sapiens) [compound 60]”: the Peptide exchange result is on record as “″++″ (≥20% = ++)”.

As to “26 (GLASKENFSNVSL; listed as Homo sapiens) [compound 26]”, the Peptide exchange result is “″++″ (≥20% = ++)”.

As to “90 (GLLKPGLNVVL; listed as Homo sapiens) [compound 90]”, the Peptide exchange result is listed as “″+++″ (≥50 = +++)”.

In the case of “95 (AILDAHIEV; listed as Homo sapiens) [compound 95]”, the Peptide exchange result is on record as “″++++″ (≥75% = ++++)”.

As for “168 (GLIRFPLMTI; listed as Homo sapiens) [compound 168]”, the Peptide exchange entry was “″+++″ (≥50 = +++)”.

Regarding “8 (ALMLQGVDLL; listed as Homo sapiens) [compound 8]”, the Peptide exchange result is “″+++″ (≥50 = +++)”.

With “189 (AISEVIGKITA; listed as Homo sapiens) [compound 189]”, the Peptide exchange result is recorded as “″+++″ (≥50 = +++)”.

Regarding “20 (YLKDGDVML; listed as Homo sapiens) [compound 20]”, the Peptide exchange entry is reported as “″+++″ (≥50 = +++)”.

“160 (KLLEFDQLQL; listed as Homo sapiens) [compound 160]”: the Peptide exchange result is reported as “″+++″ (≥50 = +++)”.

Regarding “84 (SMVEDITGLRL; listed as Homo sapiens) [compound 84]”, the Peptide exchange result was “″+++″ (≥50 = +++)”.

For the substance “87 (LLFDAPDLRL; listed as Homo sapiens) [compound 87]”, the Peptide exchange entry is reported as “″+++″ (≥50 = +++)”.

“182 (SLNKWIFTV; listed as Homo sapiens) [compound 182]”: the Peptide exchange result is “″++++″ (≥75% = ++++)”.

Take “112 (KLGQVLIYL; listed as Homo sapiens) [compound 112]”: the Peptide exchange entry is given as “″++″ (≥20% = ++)”.

As for “4 (RLAELTVDEFL; listed as Homo sapiens) [compound 4]”, the Peptide exchange result was “″+++″ (≥50 = +++)”.

Turning to “63 (KLFSILSTV; listed as Homo sapiens) [compound 63]”, the Peptide exchange entry is reported as “″++″ (≥20% = ++)”.

Regarding “36 (GLLESPSIFNFTA; listed as Homo sapiens) [compound 36]”, the Peptide exchange result was “″+++″ (≥50 = +++)”.

On to “119 (ILYQTVTGL; listed as Homo sapiens) [compound 119]”, for which the Peptide exchange result is listed as “″++″ (≥20% = ++)”.

Turning to “143 (KLSDVWKEL; listed as Homo sapiens) [compound 143]”, the Peptide exchange entry is given as “″+++″ (≥50 = +++)”.

As to “62 (YLAPENGYL; listed as Homo sapiens) [compound 62]”, the Peptide exchange entry is listed as “″++″ (≥20% = ++)”.

For “15 (LQLDKEFQL; listed as Homo sapiens) [compound 15]”, the Peptide exchange entry was “″+++″ (≥50 = +++)”.

As to “35 (KLLDLTVRI; listed as Homo sapiens) [compound 35]”, the Peptide exchange entry is reported as “″+++″ (≥50 = +++)”.

As to “50 (TLMAEMHVV; listed as Homo sapiens) [compound 50]”, the Peptide exchange result is “″+++″ (≥50 = +++)”.

Take “122 (SLMGMVLKL; listed as Homo sapiens) [compound 122]”: the Peptide exchange entry is given as “″+++″ (≥50 = +++)”.

Turning to “96 (KLYSRLVYV; listed as Homo sapiens) [compound 96]”, the Peptide exchange result is reported as “″++″ (≥20% = ++)”.

As for “175 (TLLGGKEAQALGV; listed as Homo sapiens) [compound 175]”, the Peptide exchange entry is listed as “″+++″ (≥50 = +++)”.

Turning to “191 (QLFSEIHNL; listed as Homo sapiens) [compound 191]”, the Peptide exchange result is reported as “″++++″ (≥75% = ++++)”.

Consider “51 (QVWEIQHTV; listed as Homo sapiens) [compound 51]”, for which the Peptide exchange result is “″++″ (≥20% = ++)”.

Consider “173 (KLGDLMVLL; listed as Homo sapiens) [compound 173]”, for which the Peptide exchange result was “″+++″ (≥50 = +++)”.

As for “176 (RTLDKVLEV; listed as Homo sapiens) [compound 176]”, the Peptide exchange result was “″++″ (≥20% = ++)”.

“81 (ALLSQQTHL; listed as Homo sapiens) [compound 81]”: the Peptide exchange result is on record as “″+++″ (≥50 = +++)”.

With “83 (LTIEDGIFEV; listed as Homo sapiens) [compound 83]”, the Peptide exchange entry is listed as “″+++″ (≥50 = +++)”.

Turning to “107 (ALLGGGPYML; listed as Homo sapiens) [compound 107]”, the Peptide exchange entry is listed as “″+++″ (≥50 = +++)”.

In the case of “67 (SLNDLEKDVMLL; listed as Homo sapiens) [compound 67]”, the Peptide exchange result is recorded as “″+++″ (≥50 = +++)”.

Regarding “116 (LVYQFVHPI; listed as Homo sapiens) [compound 116]”, the Peptide exchange result is “″++″ (≥20% = ++)”.

For “135 (KLQEEIPVL; listed as Homo sapiens) [compound 135]”, the Peptide exchange entry is recorded as “″++″ (≥20% = ++)”.

As for “139 (VLLNEILEQV; listed as Homo sapiens) [compound 139]”, the Peptide exchange result is listed as “″+++″ (≥50 = +++)”.

Turning to “98 (AMNGKSFSV; listed as Homo sapiens) [compound 98]”, the Peptide exchange entry is recorded as “″++″ (≥20% = ++)”.
